Assay results taken from patent US20140308678A1 (ONCOTHERAPY SCIENCE, published 2014).

Tests used:
[1] = target: T1, FLAG-HSP90AB1 (WT) (human, UniProt P08238 1-724); test: anti-FLAG immunoprecipitation from 293T cells, Western blot with anti-Cdc37 (FIG. 5D); the wild type is the reference
T1 construct: Expressed in cells together with HA-SMYD2 (so it may be methylated by SMYD2 in the assay); not shown: FLAG tag
Protocol: (§1) Then, cell lysates were immunoblotted with anti-FLAG, anti-SMYD2 and anti-ACTB (an internal control) antibodies. Part B depicts the results of immunoprecipitation analysis using 293T cells co-transfected with FLAG-Mock or FLAG-HSP90AB1 (WT) and HA-HSP90AB1 (WT or K531A/K574A) expression vectors in the presence of an HA-SMYD2 expression vector. Immunoprecipitation was performed using anti-FLAG^{(registered trademark)} M2 agarose beads, and samples were immunoblotted with anti-FLAG and anti-HA antibodies. Part C depicts the results of immunoprecipitation analysis using 293T cells co-transfected with FLAG-Mock or FLAG-HSP90AB1 (WT) and HA-HSP90AB1 (WT, K531A or K574A) expression vectors in the presence of an HA-SMYD2 expression vector. Immunoprecipitation was performed using anti-FLAG^{(registered trademark)} M2 agarose beads, and samples were immunoblotted with anti-FLAG and anti-HA antibodies. Part D and E depict that the methylation of K574 on HSP90AB1 is important for binding to some co-chaperones. 293T cells were transfected with FLAG-HSP90AB1 (WT) or FLAG-HSP90AB1 (K531A/K574A) (D), FLAG-Mock, FLAG-HSP90AB1 (WT), FLAG-HSP90AB1 (K531A) or FLAG-HSP90AB1 (K574A) (E) expression vectors, in the presence of an HA-SMYD2 expression vector. […]

[2] = target: T2, FLAG-HSP90AB1 (K574A) (human, UniProt P08238 1-724); test: anti-FLAG immunoprecipitation from 293T cells, Western blot with anti-p23 (FIG. 5E)
T2 construct: Expressed in 293T cells in the presence of HA-SMYD2; not shown: FLAG tag
Protocol: as §1

[3] = target: T3, FLAG-HSP90AB1 (K531A/K574A) (human, UniProt P08238 1-724); test: anti-FLAG immunoprecipitation from 293T cells, Western blot with anti-p23 (FIG. 5D)
T3 construct: Expressed in 293T cells in the presence of HA-SMYD2; also called K531A/K574A substitution of HSP90AB1; not shown: FLAG tag
Protocol: as §1

[4] = target: T1, FLAG-HSP90AB1 (WT); test: anti-FLAG immunoprecipitation from 293T cells, Western blot with anti-p23 (FIG. 5D); the wild type is the reference
Protocol: as §1

T1 sequence (P08238 whole entry): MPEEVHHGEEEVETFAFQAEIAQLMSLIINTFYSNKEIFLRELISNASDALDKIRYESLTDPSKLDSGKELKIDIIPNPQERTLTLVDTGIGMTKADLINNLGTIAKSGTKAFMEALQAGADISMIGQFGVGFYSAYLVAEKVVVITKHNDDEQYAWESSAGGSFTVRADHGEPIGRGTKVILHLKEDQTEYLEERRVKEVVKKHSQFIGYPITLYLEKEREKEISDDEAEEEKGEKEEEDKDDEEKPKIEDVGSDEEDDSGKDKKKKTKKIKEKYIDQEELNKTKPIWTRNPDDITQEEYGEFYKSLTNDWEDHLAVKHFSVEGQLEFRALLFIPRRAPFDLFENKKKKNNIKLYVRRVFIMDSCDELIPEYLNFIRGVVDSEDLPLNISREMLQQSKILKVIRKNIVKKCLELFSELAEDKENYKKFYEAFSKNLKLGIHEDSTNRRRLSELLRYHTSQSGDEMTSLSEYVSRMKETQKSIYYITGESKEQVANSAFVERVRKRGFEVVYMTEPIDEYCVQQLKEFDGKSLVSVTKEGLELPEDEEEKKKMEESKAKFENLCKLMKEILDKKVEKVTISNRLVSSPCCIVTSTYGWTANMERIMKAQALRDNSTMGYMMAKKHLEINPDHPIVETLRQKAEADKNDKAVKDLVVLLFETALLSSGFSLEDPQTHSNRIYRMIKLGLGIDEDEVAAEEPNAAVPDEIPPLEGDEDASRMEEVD
T2 sequence (P08238 whole entry K574A): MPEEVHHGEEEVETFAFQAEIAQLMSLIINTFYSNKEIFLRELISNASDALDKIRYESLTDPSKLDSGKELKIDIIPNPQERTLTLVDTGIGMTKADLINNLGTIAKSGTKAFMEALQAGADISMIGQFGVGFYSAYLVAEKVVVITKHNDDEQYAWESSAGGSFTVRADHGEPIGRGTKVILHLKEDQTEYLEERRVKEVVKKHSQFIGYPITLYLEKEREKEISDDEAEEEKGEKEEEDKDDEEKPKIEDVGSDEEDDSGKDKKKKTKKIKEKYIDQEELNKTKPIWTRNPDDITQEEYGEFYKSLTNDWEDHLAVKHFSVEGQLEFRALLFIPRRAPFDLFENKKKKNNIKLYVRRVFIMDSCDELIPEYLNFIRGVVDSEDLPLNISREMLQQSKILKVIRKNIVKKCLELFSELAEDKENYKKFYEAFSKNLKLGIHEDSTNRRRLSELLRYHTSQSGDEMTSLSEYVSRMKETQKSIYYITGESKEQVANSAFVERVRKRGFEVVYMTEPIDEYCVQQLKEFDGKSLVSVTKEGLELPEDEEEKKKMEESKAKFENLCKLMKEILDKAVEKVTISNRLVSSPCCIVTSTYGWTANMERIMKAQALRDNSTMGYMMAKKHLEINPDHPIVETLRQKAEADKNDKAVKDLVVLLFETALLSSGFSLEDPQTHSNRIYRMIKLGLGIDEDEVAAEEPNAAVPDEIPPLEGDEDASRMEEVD
T3 sequence (P08238 whole entry K531A/K574A): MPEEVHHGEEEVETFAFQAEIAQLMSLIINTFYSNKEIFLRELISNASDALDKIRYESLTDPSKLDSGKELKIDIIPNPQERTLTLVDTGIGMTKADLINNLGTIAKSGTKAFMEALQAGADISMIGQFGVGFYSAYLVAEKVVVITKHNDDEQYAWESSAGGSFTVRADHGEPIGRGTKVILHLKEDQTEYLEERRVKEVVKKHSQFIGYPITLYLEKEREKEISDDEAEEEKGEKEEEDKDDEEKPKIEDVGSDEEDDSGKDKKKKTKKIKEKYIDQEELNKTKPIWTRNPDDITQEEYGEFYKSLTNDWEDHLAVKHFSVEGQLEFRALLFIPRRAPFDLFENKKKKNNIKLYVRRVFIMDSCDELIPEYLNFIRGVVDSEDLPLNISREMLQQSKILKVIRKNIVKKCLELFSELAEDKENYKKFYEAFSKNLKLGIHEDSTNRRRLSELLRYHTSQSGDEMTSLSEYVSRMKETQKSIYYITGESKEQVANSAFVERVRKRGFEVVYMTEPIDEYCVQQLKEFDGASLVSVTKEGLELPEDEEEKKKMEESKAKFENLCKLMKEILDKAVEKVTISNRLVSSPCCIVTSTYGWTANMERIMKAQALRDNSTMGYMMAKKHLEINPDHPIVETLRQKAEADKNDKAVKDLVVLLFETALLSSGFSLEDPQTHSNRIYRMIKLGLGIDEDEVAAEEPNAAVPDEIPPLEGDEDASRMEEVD

B1: Cdc37 (other, UniProt Q16543 1-378, looked up)
chain: MVDYSVWDHIEVSDDEDETHPNIDTASLFRWRHQARVERMEQFQKEKEELDRGCRECKRKVAECQRKLKELEVAEGGKAELERLQAEAQQLRKEERSWEQKLEEMRKKEKSMPWNVDTLSKDGFSKSMVNTKPEKTEEDSEEVREQKHKTFVEKYEKQIKHFGMLRRWDDSQKYLSDNVHLVCEETANYLVIWCIDLEVEEKCALMEQVAHQTIVMQFILELAKSLKVDPRACFRQFFTKIKTADRQYMEGFNDELEAFKERVRGRAKLRIEKAMKEYEEEERKKRLGPGGLDPVEVYESLPEELQKCFDVKDVQMLQDAISKMDPTDAKYHMQRCIDSGLWVPNSKASEAKEGEEAGPGDPLLEAVPKTGDEKDVSV
notes: Endogenous in 293T cell lysate
**Q.** Does B1 bind [1]?
**A.** binds

B2: p23 (other, UniProt Q15185 1-160, looked up)
chain: MQPASAKWYDRRDYVFIEFCVEDSKDVNVNFEKSKLTFSCLGGSDNFKHLNEIDLFHCIDPNDSKHKRTDRSILCCLRKGESGQSWPRLTKERAKLNWLSVDFNNWKDWEDDSDEDMSNFDRFSEMMNNMGGDEDVDLPEVDGADDDSQDSDDEKMPDLE
notes: as for B1
**Q.** What does the source list for B2?
**A.** binding result [2]: binds; binding result [3]: binds; binding result [4]: binds
